The target of this assay is human Hsp60 G190W mutant (human) (UniProt P10809). Nature of the assay: SEC; Superdex 200 Increase 10/300 GL, 50 mM Tris-HCl (pH 7.8 at 25 °C), 2 mM DTT, 2 mM EDTA, 0.5 mg sample, 0.75 mL/min; size from calibration with molecular weight standards; before and after agitation.

Consider “human Hsp60 G190W mutant (from UniProt P10809 53-573) (natural protein)”, for which the stoichiometry N turned out to be 14.

The record behind these values is publication PMC6982183.
